Test results reported in patent publication US20120129768A1.

Target: Glucagon-like peptide-1 receptor (GLP1R)
Experiment: cell-based or functional assay

Liraglutide (peptide), sequence (peptide): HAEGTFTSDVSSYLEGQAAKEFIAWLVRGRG

- Maximum reaction rate (%): 96.8%
Substance: Liraglutide (peptide)
